B1: WDFY1 (parent)
chain: FWNIKQMWDTKTLGLRQHHCRKCG

Variants of: B1
Assay: protein stability index of a GFP-peptide fusion (GPS, HEK-293T) (PSI 1-6); higher = more stable
Conditions: c terminus: a fixed tail appended
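Also: lentivirally expressed fusions sorted by FACS into six bins by GFP to DsRed ratio, PSI derived from sequencing read proportions per bin multiplied by bin number.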

Variant | protein stability index
FWNIKQMWDTKTLLLRQHHCRKCG | 2.54
FWNIKQMWDTKTLWLRQHHCRKCG | 1.87
FWNIKQMWDTKTLSLRQHHCRKCG | 1.97
FWNIKQMWDTKTLMLRQHHCRKCG | 1.75
FWNIKQMWDTKTLALRQHHCRKCG | 2.1
FWNIKQMWDTKTLRLRQHHCRKCG | 3.17
FWNIKQMWDTKTLKLRQHHCRKCG | 1.79
FWNIKQMWDTKTLGLRQHHCRKCT | 2.29
FWNIKQMWDTKTLGLRQHHCRKCM | 1.85
FWNIKQMWDTKTLGLRQHHCRKCY | 2.01
FWNIKQMWDTKTLGLRQHHCRKCK | 2.5
FWNIKQMWDTKTLGLRQHHCRKCW | 2.12
FWNIKQMWDTKTLGLRQHHCRKCI | 2.11
FWNIKQMWDTKTLGLRQHHCRKCV | 2.01
FWNIKQMWDTKTLGLRQHHCRKCS | 2.1
FWTIKQMWDTKTLGLRQHHCRKCG | 1.23
FWRIKQMWDTKTLGLRQHHCRKCG | 2.13
FWKIKQMWDTKTLGLRQHHCRKCG | 1.41
FWEIKQMWDTKTLGLRQHHCRKCG | 2.05
FWVIKQMWDTKTLGLRQHHCRKCG | 1.27
FWQIKQMWDTKTLGLRQHHCRKCG | 1.96
FWGIKQMWDTKTLGLRQHHCRKCG | 2.17
FWNIKYMWDTKTLGLRQHHCRKCG | 1.92
FWNIKHMWDTKTLGLRQHHCRKCG | 2.22

Variant | protein stability index
FWNIKAMWDTKTLGLRQHHCRKCG | 1.9
FWNIKRMWDTKTLGLRQHHCRKCG | 2.38
FWNIKCMWDTKTLGLRQHHCRKCG | 2.29
FWNIKGMWDTKTLGLRQHHCRKCG | 2.55
FWNIKVMWDTKTLGLRQHHCRKCG | 2.5
FWNIKDMWDTKTLGLRQHHCRKCG | 2.42
FWNIKQMWDTKTCGLRQHHCRKCG | 2.57
FWNIKQMWDTKTSGLRQHHCRKCG | 2.37
FWNIKQMWDTKTIGLRQHHCRKCG | 2.26
FWNIKQMWDTKTMGLRQHHCRKCG | 2
FWNIKQMWDTKTQGLRQHHCRKCG | 2.02
FWNIKQMWDTKTKGLRQHHCRKCG | 2.08
FWNIKQMWDTKTLGLRQHHCRKMG | 2.6
FWNIKQMWDTKTLGLRQHHCRKQG | 2.3
FWNIKQMWDTKTLGLRQHHCRKAG | 2.18
FWNIKQMWDTKTLGLRQHHCRKLG | 2.81
FWNIKQMWDTKTLGLRQHHCRKHG | 2.78
FWNIKQMWDTKTLGLRQHHCRKWG | 1.75
FWNIKQMWDTKTLGLRQHHCRKFG | 1.59
FWNIKQMWDTKTLGLRQHHCRKIG | 1.93
FWNIMQMWDTKTLGLRQHHCRKCG | 1.87
FWNIHQMWDTKTLGLRQHHCRKCG | 2.03
FWNINQMWDTKTLGLRQHHCRKCG | 2.28
FWNIWQMWDTKTLGLRQHHCRKCG | 2.11

Variant | protein stability index
FWNIIQMWDTKTLGLRQHHCRKCG | 2.15
FWNIRQMWDTKTLGLRQHHCRKCG | 1.82
FWNILQMWDTKTLGLRQHHCRKCG | 1.07
FWNIYQMWDTKTLGLRQHHCRKCG | 1.36
FWNIGQMWDTKTLGLRQHHCRKCG | 1.96
FWNIDQMWDTKTLGLRQHHCRKCG | 2.27
FWNIKQMWDTKTLGLQQHHCRKCG | 1.94
FWNIKQMWDTKTLGLIQHHCRKCG | 1.43
FWNIKQMWDTKTLGLEQHHCRKCG | 2.3
FWNIKQMWDTKTLGLMQHHCRKCG | 1.65
FWNIKQMWDTKTLGLAQHHCRKCG | 1.45
FWNIKQMWDTKTLGLPQHHCRKCG | 1.8
FWNIKQMWDTKTLGLSQHHCRKCG | 2.21
FWNIKQMWDTKTLGLLQHHCRKCG | 1.79
FWNIKQMWDTKTLGLTQHHCRKCG | 2.55
FWNIKQMWDTVTLGLRQHHCRKCG | 1.97
FWNIKQMWDTWTLGLRQHHCRKCG | 2.44
FWNIKQMWDTQTLGLRQHHCRKCG | 1.77
FWNIKQMWDTCTLGLRQHHCRKCG | 1.87
FWNIKQMWDTITLGLRQHHCRKCG | 1.42
FWNIKQMWDTLTLGLRQHHCRKCG | 1.54
FWNIKQMWVTKTLGLRQHHCRKCG | 3.82
FWNIKQMWITKTLGLRQHHCRKCG | 1.94
FWNIKQMWTTKTLGLRQHHCRKCG | 1.47

Variant | protein stability index
FWNIKQMWLTKTLGLRQHHCRKCG | 1.6
FWNIKQMWRTKTLGLRQHHCRKCG | 2.24
FWNIKQMWHTKTLGLRQHHCRKCG | 2.05
FWNIKQMWETKTLGLRQHHCRKCG | 1.95
FWNIKQMWNTKTLGLRQHHCRKCG | 1.77
FWNIKQMWATKTLGLRQHHCRKCG | 1.98
FWNIKQMWDTKTLGLRQHKCRKCG | 2.33
FWNIKQMWDTKTLGLRQHFCRKCG | 1.64
FWNIKQMWDTKTLGLRQHCCRKCG | 2.14
FWNIKQMWDTKTLGLRQHWCRKCG | 1.66
FWNIKQMWDTKTLGLRQHYCRKCG | 2.5
FWNIKQMWDFKTLGLRQHHCRKCG | 2.52
FWNIKQMWDIKTLGLRQHHCRKCG | 2.31
FWNIKQMWDWKTLGLRQHHCRKCG | 2.48
FWNIKQMWDVKTLGLRQHHCRKCG | 2.04
FWNIKQMWDQKTLGLRQHHCRKCG | 1.91
FWNIKQMWDEKTLGLRQHHCRKCG | 2.39
FWNIKQMWDLKTLGLRQHHCRKCG | 2.23
FWNIKQMWDTKTLGLRQHHDRKCG | 3.16
FWNIKQMWDTKTLGLRQHHQRKCG | 3.22
FWNIKQMWDTKTLGLRQHHYRKCG | 2.23
FWNIKQMWDTKTLGLRQHHLRKCG | 2.23
FWNIKQMWDTKTLGLRQHHSRKCG | 2.44
QWNIKQMWDTKTLGLRQHHCRKCG | 2.31

Variant | protein stability index
NWNIKQMWDTKTLGLRQHHCRKCG | 2.76
MWNIKQMWDTKTLGLRQHHCRKCG | 2.98
AWNIKQMWDTKTLGLRQHHCRKCG | 2.11
PWNIKQMWDTKTLGLRQHHCRKCG | 2.29
GWNIKQMWDTKTLGLRQHHCRKCG | 2.3
IWNIKQMWDTKTLGLRQHHCRKCG | 1.91
FWNIKQMWDTKTLGYRQHHCRKCG | 1.98
FWNIKQMWDTKTLGIRQHHCRKCG | 1.75
FWNIKQMWDTKTLGQRQHHCRKCG | 2.29
FWNIKQMWDTKTLGTRQHHCRKCG | 2.43
FWNIKQMWDTKTLGRRQHHCRKCG | 1.93
FWNIKQMWDTKTLGFRQHHCRKCG | 1.91
FWNIKQMWDTKTLGSRQHHCRKCG | 2.95
FWNIKQMWDTKTLGNRQHHCRKCG | 2.07
FWNIKQMWDTKTLGARQHHCRKCG | 2.27
FWNIKQMWDTKTLGDRQHHCRKCG | 1.56
FWNIKQMWDTKTLGERQHHCRKCG | 3.35
FWNIKQMMDTKTLGLRQHHCRKCG | 2.78
FWNIKQMHDTKTLGLRQHHCRKCG | 2.24
FWNIKQMRDTKTLGLRQHHCRKCG | 1.42
FWNIKQMPDTKTLGLRQHHCRKCG | 2.73
FWNIKQMFDTKTLGLRQHHCRKCG | 1.67
FWNIKQMADTKTLGLRQHHCRKCG | 2.57
FWNIKQMCDTKTLGLRQHHCRKCG | 2.54

Variant | protein stability index
FWNIKQMKDTKTLGLRQHHCRKCG | 2.18
FWNIKQMNDTKTLGLRQHHCRKCG | 2.25
FWNIKQMWDTKTLGLRQCHCRKCG | 3
FWNIKQMWDTKTLGLRQGHCRKCG | 2.39
FWNIKQMWDTKTLGLRQFHCRKCG | 1.64
FWNIKQMWDTKTLGLRQNHCRKCG | 2.35
FWNIKQMWDTKTLGLRQRHCRKCG | 2.21
FWNIKQMWDTKTLGLRQTHCRKCG | 3.16
FWNIKQMWDTKTLGLRQYHCRKCG | 2.08
FWNIKQMWDTKTLGLRQEHCRKCG | 2.21
FWNIKQMWDTKTLGLRQHHCNKCG | 1.83
FWNIKQMWDTKTLGLRQHHCSKCG | 2.16
FWNIKQMWDTKTLGLRQHHCIKCG | 1.72
FWNIKQMWDTKTLGLRQHHCPKCG | 2.07
FWNIKQMWDTKTLGLRQHHCWKCG | 2.46
FWNIKQMWDTKTLGLRQHHCGKCG | 1.84
FWNIKQMWDTKTLGLRQHHCLKCG | 1.67
FWNIKQMWDTKTLGLRQHHCKKCG | 2.78
FWNIKQMWDTKTLGLRQHHCAKCG | 2.03
FWNIKQMWDTKTLGLRQHHCHKCG | 1.57
FNNIKQMWDTKTLGLRQHHCRKCG | 2.46
FTNIKQMWDTKTLGLRQHHCRKCG | 1.67
FPNIKQMWDTKTLGLRQHHCRKCG | 2.32
FSNIKQMWDTKTLGLRQHHCRKCG | 1.62

Variant | protein stability index
FENIKQMWDTKTLGLRQHHCRKCG | 2.53
FANIKQMWDTKTLGLRQHHCRKCG | 2.24
FKNIKQMWDTKTLGLRQHHCRKCG | 2.29
FWNIKQMWDTKTLGLRGHHCRKCG | 2.98
FWNIKQMWDTKTLGLRAHHCRKCG | 1.6
FWNIKQMWDTKTLGLRMHHCRKCG | 1.7
FWNIKQMWDTKTLGLRLHHCRKCG | 2.53
FWNIKQMWDTKTLGLRWHHCRKCG | 2.02
FWNIKQMWDTKTLGLRDHHCRKCG | 1.63
FWNIKQMWDTKTLGLRKHHCRKCG | 1.99
FWNIKQMWDTKTLGLRVHHCRKCG | 1.68
FWNIKQMWDTKTLGLRCHHCRKCG | 2.13
FWNIKQKWDTKTLGLRQHHCRKCG | 2.35
FWNIKQLWDTKTLGLRQHHCRKCG | 2.39
FWNIKQGWDTKTLGLRQHHCRKCG | 1.89
FWNIKQHWDTKTLGLRQHHCRKCG | 2.9
FWNIKQPWDTKTLGLRQHHCRKCG | 1.95
FWNIKQCWDTKTLGLRQHHCRKCG | 2.06
FWNIKQDWDTKTLGLRQHHCRKCG | 2.54
FWNIKQQWDTKTLGLRQHHCRKCG | 2.92
FWNIKQAWDTKTLGLRQHHCRKCG | 1.89
FWNIKQYWDTKTLGLRQHHCRKCG | 2.45
FWNIKQVWDTKTLGLRQHHCRKCG | 1.64
FWNIKQWWDTKTLGLRQHHCRKCG | 1.96

Variant | protein stability index
FWNIKQMWDTKVLGLRQHHCRKCG | 2.33
FWNIKQMWDTKHLGLRQHHCRKCG | 1.86
FWNIKQMWDTKCLGLRQHHCRKCG | 3.57
FWNIKQMWDTKNLGLRQHHCRKCG | 1.84
FWNIKQMWDTKSLGLRQHHCRKCG | 2.14
FWNIKQMWDTKLLGLRQHHCRKCG | 1.36
FWNIKQMWDTKELGLRQHHCRKCG | 1.72
FWNHKQMWDTKTLGLRQHHCRKCG | 2.56
FWNWKQMWDTKTLGLRQHHCRKCG | 3.44
FWNYKQMWDTKTLGLRQHHCRKCG | 1.9
FWNDKQMWDTKTLGLRQHHCRKCG | 2.56
FWNGKQMWDTKTLGLRQHHCRKCG | 2.19
FWNIKQMWDTKTLGLRQHHCRECG | 1.6
FWNIKQMWDTKTLGLRQHHCRLCG | 1.34
FWNIKQMWDTKTLGLRQHHCRNCG | 1.99
FWNIKQMWDTKTLGLRQHHCRACG | 1.59
FWNIKQMWDTKTLGLRQHHCRSCG | 1.66
FWNIKQMWDTKTLGLRQHHCRDCG | 3.4
FWNIKQMWDTKTLGLRQHHCRPCG | 1.98
FWNIKQMWDTKTLGLRQHHCRHCG | 1.44

— the supplement of paper PMC10567573
